B1: ARHGEF6 protein (Rho guanine nucleotide exchange factor 6) (other)
chain: MNPEEQIVTWLISLGVLESPKKTICDPEEFLKSSLKNGVVLCKLINRLMPGSVEKFCLDPQTEADCINNINDFLKGCATLQVEIFDPDDLYSGVNFSKVLSTLLAVNKATEDQLSERPCGRSSSLSAANTSQTNPQGAVSSTVSGLQRQSKTVEMTENGSHQLIVKARFNFKQTNEDELSVCKGDIIYVTRVEEGGWWEGTLNGRTGWFPSNYVREIKSSERPLSPKAVKGFETAPLTKNYYTVVLQNILDTEKEYAKELQSLLVTYLRPLQSNNNLSTVEVTSLLGNFEEVCTFQQTLCQALEECSKFPENQHKVGGCLLSLMPHFKSMYLAYCANHPSAVNVLTQHSDELEQFMENQGASSPGILILTTNLSKPFMRLEKYVTLLQELERHMEDTHPDHQDILKAIVAFKTLMGQCQDLRKRKQLELQILSEPIQAWEGEDIKNLGNVIFMSQVMVQYGACEEKEERYLMLFSNVLIMLSASPRMSGFIYQGKIPIAGTVVTRLDEIEGNDCTFEITGNTVERIVVHCNNNQDFQEWLEQLNRLIRGPASCSSLSKTSSSSCSAHSSFSSTGQPRGPLEPPQIIKPWSLSCLRPAPPLRPSAALGYKERMSYILKESSKSPKTMKKFLHKRKTERKPSEEEYVIRKSTAALEEDAQILKVIEAYCTSANFQQGHGSSTRKDSIPQVLLPEEEKLIIEETRSNGQTIMEEKSLVDTVYALKDEVRELKQENKRMKQCLEEELKSRRDLEKLVRRLLKQTDECIRGESSSKTSILP
notes: Endogenous protein of CLL and MEC1 cells
B2: CD5 (receptor, human, UniProt P06127 25-495, looked up)
chain: RLSWYDPDFQARLTRSNSKCQGQLEVYLKDGWHMVCSQSWGRSSKQWEDPSQASKVCQRLNCGVPLSLGPFLVTYTPQSSIICYGQLGSFSNCSHSRNDMCHSLGLTCLEPQKTTPPTTRPPPTTTPEPTAPPRLQLVAQSGGQHCAGVVEFYSGSLGGTISYEAQDKTQDLENFLCNNLQCGSFLKHLPETEAGRAQDPGEPREHQPLPIQWKIQNSSCTSLEHCFRKIKPQKSGRVLALLCSGFQPKVQSRLVGGSSICEGTVEVRQGAQWAALCDSSSARSSLRWEEVCREQQCGSVNSYRVLDAGDPTSRGLFCPHQKLSQCHELWERNSYCKKVFVTCQDPNPAGLAAGTVASIILALVLLVVLLVVCGPLAYKKLVKKFRQKKQRQWIGPTGMNQNMSFHRNHTATVRSHAENPTASHVDNEYSQPPRNSHLSAYPALEGALHRSSMQPDNSSDSDYDLHGAQRL
notes: whole, on cells; Negative control for co-localization
B3: CD19 (receptor, human, UniProt P15391 20-556, looked up)
chain: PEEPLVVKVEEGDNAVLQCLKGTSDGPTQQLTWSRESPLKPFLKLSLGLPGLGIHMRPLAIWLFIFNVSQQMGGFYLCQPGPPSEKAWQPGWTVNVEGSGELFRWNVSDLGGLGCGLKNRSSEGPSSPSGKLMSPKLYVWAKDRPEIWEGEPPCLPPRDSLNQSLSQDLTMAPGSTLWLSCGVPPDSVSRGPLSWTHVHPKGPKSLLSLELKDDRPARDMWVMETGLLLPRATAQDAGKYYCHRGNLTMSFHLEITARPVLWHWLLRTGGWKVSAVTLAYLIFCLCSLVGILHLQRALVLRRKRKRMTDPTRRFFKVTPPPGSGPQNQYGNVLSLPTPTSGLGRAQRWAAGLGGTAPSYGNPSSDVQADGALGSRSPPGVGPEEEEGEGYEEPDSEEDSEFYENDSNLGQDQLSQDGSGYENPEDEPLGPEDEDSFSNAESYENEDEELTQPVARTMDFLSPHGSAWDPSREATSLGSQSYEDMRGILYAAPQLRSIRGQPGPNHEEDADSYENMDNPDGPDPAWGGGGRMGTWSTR
notes: as for B2

Assays:
[1] = biological target: T1, ROR2 protein (tyrosine-protein kinase transmembrane receptor ROR2) (human, UniProt Q01974 34-943); test: fluorescence confocal microscopy, Wnt5a-treated CLL cells
T1 construct: Endogenous ROR2 of CLL cells, normal B cells and MEC1 cells; also called NTRKR2
T1 sequence (Q01974 34-943 limits assumed): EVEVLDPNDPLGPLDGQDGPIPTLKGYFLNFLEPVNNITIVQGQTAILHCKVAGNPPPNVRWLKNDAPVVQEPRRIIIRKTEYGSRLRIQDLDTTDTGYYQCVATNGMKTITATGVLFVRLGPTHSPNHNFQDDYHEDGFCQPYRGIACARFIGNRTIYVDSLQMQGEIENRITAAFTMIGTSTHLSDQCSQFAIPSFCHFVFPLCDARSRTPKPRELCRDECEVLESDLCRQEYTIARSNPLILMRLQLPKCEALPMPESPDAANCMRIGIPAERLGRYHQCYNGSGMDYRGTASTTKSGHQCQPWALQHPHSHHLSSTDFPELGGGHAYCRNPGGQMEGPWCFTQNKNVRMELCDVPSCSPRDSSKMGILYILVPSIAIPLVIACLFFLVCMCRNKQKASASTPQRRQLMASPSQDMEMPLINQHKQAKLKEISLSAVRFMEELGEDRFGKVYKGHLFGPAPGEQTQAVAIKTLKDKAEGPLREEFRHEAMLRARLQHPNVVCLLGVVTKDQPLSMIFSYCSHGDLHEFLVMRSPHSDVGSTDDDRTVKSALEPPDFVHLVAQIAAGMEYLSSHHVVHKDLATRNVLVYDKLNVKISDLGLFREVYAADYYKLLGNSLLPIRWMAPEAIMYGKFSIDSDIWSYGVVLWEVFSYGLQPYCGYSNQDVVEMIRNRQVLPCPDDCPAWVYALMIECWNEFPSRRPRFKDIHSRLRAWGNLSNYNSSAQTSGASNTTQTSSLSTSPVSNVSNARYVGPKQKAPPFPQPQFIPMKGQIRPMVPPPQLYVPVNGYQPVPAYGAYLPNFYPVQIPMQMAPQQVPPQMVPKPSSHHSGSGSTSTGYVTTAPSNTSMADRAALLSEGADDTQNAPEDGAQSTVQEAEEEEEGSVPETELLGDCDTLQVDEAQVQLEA

[2] = biological target: T1, ROR2 protein (tyrosine-protein kinase …); test: fluorescence confocal microscopy, CLL cells
Protocol: (§1) FIG. 9. Negative control for co-localization analysis by confocal microscopy. CLL cells were stained with anti-CD5-Alexa-647 and anti-CD19-Alexa-488; anti-ROR1-Alexa-647 and anti-CD19-Alexa-488; or anti-CD5-Alexa-647 and anti-ROR2-Alexa-488 for evaluation by confocal microscopy (Scale bar: 2 μm). There is no co-localization between CD5 and CD19, ROR1 and CD19, or CD5 and ROR2.
(§2) However, it was difficult to detect co-localization of ROR1 with ROR2 in cultured CLL cells unless they were treated with exogenous Wnt5a (FIG. 3b).

CD19 = biological target: B3; test: fluorescence confocal microscopy, CLL cells
Protocol: as §1, §2

[3] = biological target: T2, ROR1 protein (tyrosine-protein kinase transmembrane receptor ROR1) (human, UniProt Q01973 30-937); test: fluorescence confocal microscopy, CLL cells
T2 construct: Endogenous ROR1 of CLL patients' cells, and full-length ROR1 expressed from a vector in the human CLL line MEC1 (MEC1-ROR1); also called NTRKR1; full-length ROR1
T2 sequence (Q01973 30-937 limits assumed): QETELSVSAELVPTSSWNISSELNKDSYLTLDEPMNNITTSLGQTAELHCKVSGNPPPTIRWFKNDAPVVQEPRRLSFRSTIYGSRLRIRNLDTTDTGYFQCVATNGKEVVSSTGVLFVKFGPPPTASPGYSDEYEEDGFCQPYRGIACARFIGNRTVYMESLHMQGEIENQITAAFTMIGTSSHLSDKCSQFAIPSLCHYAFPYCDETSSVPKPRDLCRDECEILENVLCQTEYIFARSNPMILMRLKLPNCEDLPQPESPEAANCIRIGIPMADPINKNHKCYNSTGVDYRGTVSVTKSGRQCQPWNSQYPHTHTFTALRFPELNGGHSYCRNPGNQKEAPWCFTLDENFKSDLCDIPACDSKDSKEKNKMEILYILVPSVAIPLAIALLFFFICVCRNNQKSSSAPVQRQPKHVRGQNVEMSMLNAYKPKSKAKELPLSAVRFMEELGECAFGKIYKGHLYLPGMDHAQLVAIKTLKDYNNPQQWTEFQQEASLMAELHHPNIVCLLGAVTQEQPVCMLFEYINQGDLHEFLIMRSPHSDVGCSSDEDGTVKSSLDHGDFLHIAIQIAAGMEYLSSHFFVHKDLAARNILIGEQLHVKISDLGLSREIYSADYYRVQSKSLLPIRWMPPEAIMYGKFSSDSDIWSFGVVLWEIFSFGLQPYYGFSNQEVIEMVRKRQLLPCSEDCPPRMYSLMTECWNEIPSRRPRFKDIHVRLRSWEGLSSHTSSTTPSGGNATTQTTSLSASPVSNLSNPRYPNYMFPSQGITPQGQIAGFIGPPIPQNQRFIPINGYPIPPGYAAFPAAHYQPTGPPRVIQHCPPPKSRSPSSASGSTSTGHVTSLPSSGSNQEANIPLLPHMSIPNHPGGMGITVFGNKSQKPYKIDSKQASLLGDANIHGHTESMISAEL
Protocol: as §1, §2

Binder: B1
- binding result [1]: binds

Binder: B2
- binding result [2]: no binding
- binding result (CD19): no binding

Binder: B3
- binding result [3]: no binding

Source: patent publication US20180112002A1 (University of California, published 2018)
